Measured values: IntAct's records for PubMed 11494128

B1: Ephrin type-B receptor 2 (Gallus gallus (Chicken)), P28693 (parent)
chain: MGPLWFCCLPLALLPLLAAVEETLMDSTTATAELGWMVHPPSGWEEVSGYDENMNTIRTYQVCNVFESSQNNWLRTKYIRRRGAHRIHVEMKFSVRDCSSIPNVPGSCKETFNLYYYESDFDSATKTFPNWMENPWMKVDTIAADESFSQVDLGGRVMKINTEVRSFGPVSKNGFYLAFQDYGGCMSLIAVRVFYRKCPRVIQNGAVFQETLSGAESTSLVAARGTCISNAEEVDVPIKLYCNGDGEWLVPIGRCMCRPGYESVENGTVCRGCPSGTFKASQGDEGCVHCPINSRTTSEGATNCVCRNGYYRADADPVDMPCTTIPSAPQAVISSVNETSLMLEWTPPRDSGGREDLVYNIICKSCGSGRGACTRCGDNVQFAPRQLGLTEPRIYISDLLAHTQYTFEIQAVNGVTDQSPFSPQFASVNITTNQAAPSAVSIMHQVSRTVDSITLSWSQPDQPNGVILDYELQYYEKNLSELNSTAVKSPTNTVTVQNLKAGTIYVFQVRARTVAGYGRYSGKMYFQTMTEAEYQTSVQEKLPLIIGSSAAGLVFLIAVVVIIIVCNRRRGFERADSEYTDKLQHYTSGHSTYRGPPPGLGVRLFVMTPGMKIYIDPFTYEDPNEAVREFAKEIDISCVKIEQVIGAGEFGEVCSGHLKLPGKREIFVAIKTLKSGYTEKQRRDFLSEASIMGQFDHPNVIHLEGVVTKSSPVMIITEFMENGSLDSFLRQNDGQFTVIQLVGMLRGIAAGMKYLADMNYVHRDLAARNILVNSNLVCKVSDFGLSRFLEDDTSDPTYTSALGGKIPIRWTAPEAIQYRKFTSASDVWSYGIVMWEVMSYGERPYWDMTNQDVINAIEQDYRLPPPMDCPNALHQLMLDCWQKDRNHRPKFGQIVNTLDKMIRNPNSLKAMAPLSSGVNLPLLDRTIPDYTSFNTVDEWLDAIKMSQYKESFASAGFTTFDIVSQMTVEDILRVGVTLAGHQKKILNSIQVMRAQMNQIQSVEV

Variants of: B1
Details: with abl1_mouse Abl1, P00520
abl1_mouse Abl1, P00520, sequence (P00520 whole entry): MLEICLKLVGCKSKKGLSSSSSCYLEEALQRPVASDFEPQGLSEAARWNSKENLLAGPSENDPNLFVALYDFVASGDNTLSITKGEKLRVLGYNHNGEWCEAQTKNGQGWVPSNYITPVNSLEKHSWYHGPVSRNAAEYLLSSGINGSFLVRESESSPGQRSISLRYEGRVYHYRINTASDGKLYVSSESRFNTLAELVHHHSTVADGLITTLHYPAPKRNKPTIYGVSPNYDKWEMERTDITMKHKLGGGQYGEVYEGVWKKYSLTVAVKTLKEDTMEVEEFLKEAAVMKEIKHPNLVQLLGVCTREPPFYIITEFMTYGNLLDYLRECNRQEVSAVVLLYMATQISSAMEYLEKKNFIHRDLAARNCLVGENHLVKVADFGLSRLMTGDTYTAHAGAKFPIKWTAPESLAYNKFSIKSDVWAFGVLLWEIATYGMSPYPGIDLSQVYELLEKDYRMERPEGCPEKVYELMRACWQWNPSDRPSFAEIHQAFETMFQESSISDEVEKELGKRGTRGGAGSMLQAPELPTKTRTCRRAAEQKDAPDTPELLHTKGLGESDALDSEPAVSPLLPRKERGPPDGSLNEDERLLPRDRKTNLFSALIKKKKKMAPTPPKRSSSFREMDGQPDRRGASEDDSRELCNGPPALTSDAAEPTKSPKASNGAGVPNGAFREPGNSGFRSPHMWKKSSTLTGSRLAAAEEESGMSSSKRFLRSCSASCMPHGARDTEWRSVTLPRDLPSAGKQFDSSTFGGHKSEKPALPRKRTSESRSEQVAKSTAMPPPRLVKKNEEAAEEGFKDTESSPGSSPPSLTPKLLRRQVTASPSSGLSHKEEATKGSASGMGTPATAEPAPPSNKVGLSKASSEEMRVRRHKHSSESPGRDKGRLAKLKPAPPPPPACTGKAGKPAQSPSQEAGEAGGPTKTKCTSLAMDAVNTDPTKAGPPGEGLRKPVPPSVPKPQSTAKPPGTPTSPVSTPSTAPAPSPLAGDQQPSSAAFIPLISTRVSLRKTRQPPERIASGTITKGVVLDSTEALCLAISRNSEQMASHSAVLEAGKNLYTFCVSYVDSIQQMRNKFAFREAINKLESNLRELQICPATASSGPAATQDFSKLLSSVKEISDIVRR
Y620E was tested, and the “effect of a mutation on the interaction” value was “decreasing interaction strength”. With Y614E the “effect of a mutation on the interaction” value was “decreasing interaction strength”. Y614E;Y620E was tested, and the “effect of a mutation on the interaction” value was “disrupting interaction strength”.

Variants of: B1
Details: with abl1_mouse Abl1, P00520
Remark: another data set of the same source
Y614E;Y620E was tested, and the “effect of a mutation on the interaction” value was “decreasing interaction strength”.
